Laboratory results as given in publication doi:10.1101/2024.04.06.588386, “Structural plasticity of 2A proteins in the Parechovirus family” (bioRxiv, 2024).

Target: the molecule itself
Experiment: SEC-SAXS; Superdex S75 Increase 5/150; 20 mM Hepes-NaOH pH 7.4, 150 mM NaCl, 4 mM TCEP, 1% v/v glycerol; molecular weight estimates and fit of crystallographic dimers (CRYSOL, NMA)

B1: HPeV1-2A^FL (full-length 2A^H/NC protein of human parechovirus 1) (natural protein)
chain: SPYGQQPQNRMMKLAYLDRGFYKHYGIIVGDHVYQLDSDDIFKTALTGKAKFTKTKLTSDWVIEEECELDYFRIKYLESAVDSEHIFSVDKNCETIAKDIFGTHTLSQHQAIGLVGTILLTAGLMSTIKTPVNAVTIKEFFNHAIDGDEQ
notes: also called full-length HPeV1-2A
  stoichiometry N: 2
